B1: Sulfolobus acidocaldarius Rad50 (enzyme, UniProt O33600 1-886, looked up)
chain: MIIREIRLQNFLSHEDTTVKFEGSINVIIGNNGAGKSSIIDGILFGLFKRTNRDIGKNEELIKKGKKSGQVSIKFEINGDTYLIDRNVGETSRDTISLLKEGKIITLARQSTTVNNKIKEILGFDHKILMSTTIIGQGSVESVFSDFPEVMKELLKINKLEMLRESNGPIHSLIKVLTDRIRSLQSIKDILKREEAEIDRLKKEIEEIKVKLENIEREAKEKEDELNQYNTEFNRIKEIKVQYDILSGELSVVNKKIEEIALRLKDFEEKEKRYNKIETEVKELDENREKINTISSFKSILVQIDSLKSQINVVENDLKRKKEKLKRKKELEEKEKQYEEIEKRKKELEEKEKQYEEIEKRLTYVLKNIERQKNEIEKLNYVDTQDLENKIKDVSDRINQIDNELKGLLDRRGDLNGRKEQTLKIYNNLNSIEDDRCPICGRPLDSEHKAKIREEIKVQLLELNKQITALQARINSLIKEREELEATRNKLQLELQKRSKEKGIYEAKLKELQRLEEEKNKLQNEILSLLSYHQEFENIAEKEKELIDYHEEYLKNSDILEEDIQEQEQRLNELNSKLSELEKSYNDYKAKYQFLPADLKSLVSLEERIRRRISELEKLKIEYERLKEEITRMKGLKEEYEKLKEEEDALLNRISELGYSEKRYKQLEEIIDKLSKILSGIEADKGKIKGSLEEKIKNIEEKERNIEELRNKMNEESKLNLGISKLQKLREVLDNKHLQSHIMNIVRNQIENNVNEVIAKFDLSFSAVEIDFVGKSELYVYTASGQKIHINALSGGERISIALALRLAIAKALMNQFSTLILDEPTVNLDEYRRKELIDVIRSAIEIVPQIILVTHDQELIQAGDYIIRVEKKGDTSKVEVSSYDR

Key:
atomic force microscopy = molecular target: the molecule itself; experiment: atomic force microscopy
[1] = molecular target: B1; experiment: atomic force microscopy

binding result [1] | Binder | binding result (atomic force microscopy)
– | B1 | binds
binds | Sulfolobus acidocaldarius Mre11 (enzyme, UniProt Q8NKQ0 1-382, looked up) MQLLHISDTHLGKRQYNLESREKDVYDTFTQLIDIAINEHVKAVIHTGDLFDVNNPPNRAKLHAIKELKRLKDHNIPFICIAGDHDSPKRKEEIYPQRILEEFNLIKILQKIDNRVKLENVEVYGISHISNVSVNDLKEQLSKVKPETRKSILMLHQGIRTYLPYQGAWQIELSDLPKGFSLYAVGHLHSRRKDYLDGGALIEIAGSPDIMREEEIEDYQKSKKGATLIDMSGDLPSINYINVNIRDQLVLDINVDKIEQSIESVIQKLKENVKNDKKPILHIELEGTVPIRKDVLMTKLQALRDYVEHYRIYKNNIVSIKEENLKTKLKTTYSSLNDIIADYLKGIGYTDEETKIIIDIINEEDEKKVEELLKKFAGVEDK | –

Reference: publication PMC7334584 (Proceedings of the National Academy of Sciences of the …, 2020)
